Assay results: patent US20250354175, “ATTP MV4-DERIVED SITE-SPECIFIC RECOMBINATION AND ITS USE FOR INTEGRATION OF SEQUENCE OF INTEREST” (INSTITUT NATIONAL DE RECHERCHE POUR L'AGRICULTURE, …, published 2025)

Columns and labels:
[1] = target: T1, mv4Int (369 aa integrase) (Lactobacillus delbrueckii bacteriophage …); assay: EMSA; stable with P'12 arm DNA; unstable without; room temperature, polydIdC; conditions: tags: expressed from pET15b; label: Cy3 on bottom strand
T1 chain: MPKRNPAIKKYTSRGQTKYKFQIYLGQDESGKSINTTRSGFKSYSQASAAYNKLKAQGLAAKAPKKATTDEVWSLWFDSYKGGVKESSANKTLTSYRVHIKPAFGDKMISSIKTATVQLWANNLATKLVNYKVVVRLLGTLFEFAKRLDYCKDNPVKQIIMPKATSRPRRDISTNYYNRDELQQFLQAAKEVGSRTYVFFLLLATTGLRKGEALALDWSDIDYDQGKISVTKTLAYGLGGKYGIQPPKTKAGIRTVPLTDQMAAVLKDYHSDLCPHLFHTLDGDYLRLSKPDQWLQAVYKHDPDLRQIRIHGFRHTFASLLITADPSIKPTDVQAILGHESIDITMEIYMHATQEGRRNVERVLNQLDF
Experimental: 5′ Cy3 end-labelled synthetic oligonucleotides (HPLC purified) were obtained from Eurofins. Labelled double strand DNA substrates were prepared by hybridization of complementary oligonucleotides (Table 7C) in 10 mM Tris pH 7.5, 50 mM NaCl by incubating the samples 5 min at 95° C. in a thermal cycler (Biorad) and decreasing the temperature of 1.5° C./min until it reaches 25° C. Binding reactions (20 μl) were performed with 0.87 pmol of labelled core- or arm-type DNA and 4.48 pmol of unlabelled arm- or core-type DNA in buffer containing 25 mM Tris pH 8, 75 mM NaCl, 10% glycerol, 0.5 mM DTT, 0.5 mM EDTA, 1 μg polydIdC (Sigma), 0.1 mg/ml BSA. The protein was added, the reaction performed at room temperature for 20 min and samples were loaded onto a non-denaturing 7.5% polyacrylamide gel (Mini-PROTEAN TGX, Biorad). The gels were run at 4° C., 75V for 2 h.
However, if DNA containing the P′1-P′2 arm-binding sites was added to the reaction, the inhibition was removed and ^λInt was able to stably bind to the core-binding sites. […]

[2] = target: T1, mv4Int (369 aa integrase); assay: EMSA; with arm DNA; complex III increases with mv4Int; conditions: tags: expressed from pET15b; label: Cy3 on bottom strand
Experimental: However, if DNA containing the P′1-P′2 arm-binding sites was added to the reaction, the inhibition was removed and ^λInt was able to stably bind to the core-binding sites. To determine if ^mv4Int N-ter domain also exerts such inhibitory effect on its C-ter domain, they compared the ^mv4Int binding to a labelled 35-bp dsDNA containing the 21-bp core-attP region (Table 7C), in the presence or absence of unlabelled dsDNA containing the P′1 and P′2 arm-type binding sites (Table 7C). ^mv4Int binding to the COC′ sequence appeared quite unstable, as only faint bands and strong background smear can be observed (lane 3, FIG. 8A). Addition of a 28-bp dsDNA containing the P′12 sequences (Table 7C) greatly stimulates and stabilizes ^mv4Int binding to the core-attP sequence and led to the formation of three complexes (lane 4, FIG. 8A). […] To ensure that the stabilization effect was due to the binding of the N-ter domain of ^mv4Int to the arm-type binding site, the 28-pb P′12 dsDNA was replaced by a DNA duplex of 40 pb containing the P′1 and P′2 sites (Table 7C). A stabilization effect on the binding to the COC′ sequence was observed (lane 5, FIG. 8A), with the formation of two complexes (II* and III*) of mobility lower than the complexes observed with the 28-bp P′12 fragment. […]

B1: COC' WT core-attP 35 bp (dsDNA)
DNA 1: GGTATTGGAAAGAACCTGTACTCTCCTTGCGTAAC
DNA 2: GTTACGCAAGGAGAGTACAGGTTCTTTCCAATACC
[1]
  binding result: binds

B2: BOB' WT attB 35 bp (dsDNA)
DNA 1: GGTATTGTTCAAATCCTGTACTCTCCTTGCGTAAC
DNA 2: GTTACGCAAGGAGAGTACAGGATTTGAACAATACC
[2]
  binding result: binds
